Data taken from publication PMC5538626 (EMBO Reports, 2017).
Ends that are not written are not given here.

B1: Biotinylated PLEKHM1-LIR V636I peptide (peptide, UniProt Q9Y4G2 632-640, looked up)
peptide: EDEWINVQY
modifications: also: biotinylated, position not given here
notes: also called V636X with X = I; I in position X1; source: synthetic peptide, bought: JPT, Germany
B2: Biotinylated PLEKHM1-LIR V636L peptide (peptide)
peptide: EDEWLNVQY
modifications: also: biotinylated, position not given here
notes: also called V636X with X = L; L in position X1; source: synthetic peptide, bought: JPT, Germany

Assays:
6xHis-tagged GABARAP = biological target: T1, 6xHis-tagged GABARAP (human, UniProt O95166 1-117); assay: peptide or protein array; biotinylated peptides immobilised on streptavidin-coated 96-well plates, 1 uM His6-tagged mATG8 in PBS, 0.1% Tween-20, 1% BSA, 1 h at 8 C, detected with anti-His-HRP and TMB at 450 nm; expressed relative to the WT LIR peptide; settings: both partners purified
T1 construct: GABARAP, human; also called HIS6-GABARAP; source: isolated from E. coli

6xHis-tagged GABARAP-L1 = biological target: T2, 6xHis-tagged GABARAP-L1 (human, UniProt Q9H0R8 1-117); assay: as above; settings: both partners purified
T2 construct: GABARAP-L1, human; also called HIS6-GABARAP-L1; source: isolated from E. coli
T2 sequence (Q9H0R8 whole entry, looked up): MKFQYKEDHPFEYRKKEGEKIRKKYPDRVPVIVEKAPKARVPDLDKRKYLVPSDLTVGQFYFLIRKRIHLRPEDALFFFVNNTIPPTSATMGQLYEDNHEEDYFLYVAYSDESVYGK

T1 sequence (O95166 whole entry): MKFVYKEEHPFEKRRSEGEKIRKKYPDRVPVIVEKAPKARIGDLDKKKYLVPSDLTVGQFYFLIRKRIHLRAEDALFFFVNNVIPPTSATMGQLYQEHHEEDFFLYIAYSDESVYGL

| Binder | binding result (6xHis-tagged GABARAP) | binding result (6xHis-tagged GABARAP-L1) |
| --- | --- | --- |
| B1 | binds |  |
| B2 |  | binds |
